Measurements taken from the DeepSol protein solubility set.

experiment: soluble on expression in E. coli; label from the status in PepcDB or PDB records

Row | Sequence | soluble on expression in E. coli
1 | SLSPAPTTMDFTPAPLEDTSSRPQFCKWPCECPPSPPRCPLGVSLITDGCECCKMCAQQLGDNCTEAAICDPHRGLYCDYSGDRPRYAIGVCAQVVGVGCVLDGVRYNNGQSFQPNCKYNCTCIDGAVGCTPLCLRVRPPRLWCPHPRRVSIPGHCCEQWVCEDDAKRPRKTAPRDTGAFDAVGEG | soluble
2 | SLVRNGRIAFAGPESDLPDDLSTADETTDCGGRWITPALIDCHTHLVFGGNRAMEFEMRLNGATYEEIAKAGGGIVSSVRDTRALSDEVLVAQALPRLDTLLSEGVSTIEIKSGYGLDIETELKMLRVARRLETLRPVRIVTSYLAAHATPADYKGRNADYITDVVLPGLEKAHAEGLADAVDGFCEGIAFSVKEIDRVFAAAQQRGLPVKLHAEQLSNLGGAELAASYNALSADHLEYLDETGAKALAKAGTVAVLLPGAFYALREKQLPPVQALRDAGAEIALATDCNPGTSPLTSLLLTMNMGATLFRMTVEECLTATTRNAAKALGLLAETGTLEAGKSADFAIWDIERPAELVYRIGFNPLHARIFKGQKVSP | not soluble
3 | SMARENGESSSSWKKQAEDIKKIFEFKETLGTGAFSEVVLAEEKATGKLFAVKCIPKKALKGKESSIENEIAVLRKIKHENIVALEDIYESPNHLYLVMQLVSGGELFDRIVEKGFYTEKDASTLIRQVLDAVYYLHRMGIVHRDLKPENLLYYSQDEESKIMISDFGLSKMEGKGDVMSTACGTPGYVAPEVLAQKPYSKAVDCWSIGVIAYILLCGYPPFYDENDSKLFEQILKAEYEFDSPYWDDISDSAKDFIRNLMEKDPNKRYTCEQAARHPWIAGDTALNKNIHESVSAQIRKNFAKSKWRQAFNATAVVRHMRKLHLGSSLDSSNA | soluble
4 | SMEDPDQLYTTLKNLLAQIKSHPSAWPFMEPVKKSEAPDYYEVIRFPIDLKTMTERLRSRYYVTRKLFVADLQRVIANCREYNPPDSEYCRCASALEKFFYFKLKEGGLIDK | soluble
5 | SMNSNMGSDSGTMGSDSDEENVAARASPEPELQLRPYQMEVAQPALEGKNIIICLPTGSGKTRVAVYIAKDHLDKKKKASEPGKVIVLVNKVLLVEQLFRKEFQPFLKKWYRVIGLSGDTQLKISFPEVVKSCDIIISTAQILENSLLNLENGEDAGVQLSDFSLIIIDECHHTNKEAVYNNIMRHYLMQKLKNNRLKKENKPVIPLPQILGLTAS | soluble
6 | SMPNHQKVVLVGDGAVGSSYAFAMAQQGIAEEFVIVDVVKDRTKGDALDLEDAQAFTAPKKIYSGEYSDCKDADLVVITAGAPQKPGESRLDLVNKNLNILSSIVKPVVDSGFDGIFLVAANPVDILTYATWKFSGFPKERVIGSGTSLDSSRLRVALGKQFNVDPRSVDAYIMGEHGDSEFAAYSTATIGTRPVRDVAKEQGVSDDDLAKLEDGVRNKAYDIINLKGATFYGIGTALMRISKAILRDENAVLPVGAYMDGQYGLNDIYIGTPAIIGGTGLKQIIESPLSADELKKMQDSAATLKKVLNDGLAELENK | soluble
7 | SMQEKREELRMRSENQAMNIVLQRQYDQYRLSIDNIELLRREFHDLKHYMIAIRSEQDPKKKEQYLLEMEEAIHTQEALTNTGNSVLDVVLTTKSTYCMQKHITFTCMADGKLISFMHVKDICSIFGNALDNAIECVSQFDDPEKRLITLSMYQKNQLLMIQCENYTETSLSLKPDQLPTTTKQNAGYHGYGLKSIQQAARKYGGSMTLHAEDNWFTLQVLIPVES | not soluble
8 | SMQVERESISRLMQNYEKINVNEITRFSDFPLSKKTLKGLQEAQYRLVTEIQKQTIGLALQGKDVLGAAKTGSGKTLAFLVPVLEALYRLQWTSTDGLGVLIISPTRELAYQTFEVLRKVGKNHDFSAGLIIGGKDLKHEAERINNINILVCTPGRLLQHMDETVSFHATDLQMLVLDEADRILDMGFADTMNAVIENLPKKRQTLLFSATQTKSVKDLARLSLKNPEYVWVHEKA | soluble
9 | SMSETFDVELTKNVQGLGITIAGYIGDKKLEPSGIFVKSITKSSAVEHDGRIQIGDQIIAVDGTNLQGFTNQQAVEVLRHTGQTVLLTLMRRGETSV | soluble
10 | SMSGMKSSKSKDVLSAAEVMQWSQSLEKLLANQTGQNVFGSFLKSEFSEENIEFWLACEDYKKTESDLLPCKAEEIYKAFVHSDAAKQINIDFRTRESTAKKIKAPTPTCFDEAQKVIYTLMEKDSYPRFLKSDIYLNLLNDLQA | soluble
11 | SMSKHHKLARSLRSGPSDHDLKPNAATRDQLNIIVSYPPTKQLTYEEQDLVWKFRYYLTNQEKALTKFLKCVNWDLPQEAKQALELLGKWKPMDVEDSLELLSSHYTNPTVRRYAVARLRQADDEDLLMYLLQLVQALKYENFDDIKNGLEPTKKDSQSSVSENVSNSGINSAEIDSSQIITSPLPSVSSPPPASKTKEVPDGENLEQDLCTFLISRACKNSTLANYLYWYVIVECEDQDTQQRDPKTHEMYLNVMRRFSQALLKGDKSVRVMRSLLAAQQTFVDRLVHLMKAVQRESGNRKKKNERLQALLGDNEKMNLSDVELIPLPLEPQVKIRGIIPETATLFKSALMPAQLFFKTEDGGKYPVIFKHGDDLRQDQLILQIISLMDKLLRKENLDLKLTPYKVLATSTKHGFMQFIQSVPVAEVLDTEGSIQNFFRKYAPSENGPNGISAEVMDTYVKSCAGYCVITYILGVGDRHLDNLLLTKTGKLFHIDFGYILGRDPKPLPPPMKLNKEMVEGMGGTQSEQYQEFRKQCYTAFLHLRRYSNLILNLFSLMVDANIPDIALEPDKTVKKVQDKFRLDLSDEEAVHYMQSLIDESVHALFAAVVEQIH | soluble
12 | SMSNTTIEDEDVKARKQEIIKVTEQLIEAINNGDFEAYTKICDPGLTAFEPEALGNLVEGMDFHRFYFENALSKSNKPIHTIILNPHVHLVGDDAACIAYIRLTQYMDGSGMPKTMQSEETRVWHRRDGKWQNVHFHRSGSPTV | soluble
13 | SMSSHDGLMVFTGNANPALAQEVVKILGIPLGKAMVSRFSDGEIQVEIQENVRGKDVFVLQSTCAPTNDNLMELMIMVDALKRASAGRITAAIPYFGYARQDRRPRSARVAISAKVVANMLEIAGVERIITMDLHADQIQGFFDIPVDNIYATPILLGDLRKQNYPDLLVVSPDVGGVVRARALAKQLNCDLAIIDKRRPKANVAEVMNIIGEVEGRTCVIMDDMVDTAGTLCKAAQVLKERGAKQVFAYATHPVLSGGAADRIAASALDELVVTDTIPLSAESLACPKIRALSSAGLLAETFSRIRRGDSVMSLFAES | soluble
14 | SMSYESPFHLNDAVAIVTGAAAGIGRAIAGTFAKAGASVVVTDLKSEGAEAVAAAIRQAGGKAIGLECNVTDEQHREAVIKAALDQFGKITVLVNNAGGGGPKPFDMPMSDFEWAFKLNLFSLFRLSQLAAPHMQKAGGGAILNISSMAGENTNVRMASYGSSKAAVNHLTRNIAFDVGPMGIRVNAIAPGAIKTDALATVLTPEIERAMLKHTPLGRLGEAQDIANAALFLCSPAAAWISGQVLTVSGGGVQELD | soluble
15 | SMTIGRAKVYATLSKIFYHLFYDEAIPKDCREIIEKFGEIDFNLRSVLVRELRGSVLIKDMPQSLAEVYESVMKDFYERYGFQASELHADHIAVELAFMSKLVEREISLAQQMKEEELYKIRAAQHRFIKAHLQPLVKNLPSAPLLNFVRDFVREDAKYLYSSLVGEKNEGADNN | soluble
16 | SMTTTTTTISQHNFYGAGDSETCISIIENLKEEYGLFVWPCSVILAEYVWQHRSRFRDSSILELGAGTSLPGLVAAKVGANVTLTDDATKPEVLDNMRRVCELNKLNCNVLGLTWGVWDAPILDLRPNIILGADVLYDSSGSFHLFLFWVLAFSFSPCE | soluble
17 | SNAAEHVRLATTTSTYHSGLLDYLLPQFEKDTGYKVDVIAAGTGKALKMGENGDVDLVMTHAPKAEGTFVEKGYGVLPRKLMYNDFVIVGPKADPAKIKDDESVLDVFKEIANKNATFISRGDDSGTHKKEMGFWAQTKIEPNFGGYRSVGQGMGPTLNMASEMQGYTMSDRGTWLAYQNKLDLEILFQGDEKLFNPYQVILVNPERYPTINYQGAKAFSDWLVNPRGQELINGFRL | soluble
18 | SNAKIGVLQFVSHPSLDLIYKGIQDGLAEEGYKDDQVKIDFMNSEGDQSKVATMSKQLVANGNDLVVGIATPAAQGLASATKDLPVIMAAITDPIGANLVKDLKKPGGNVTGVSDHNPAQQQVELIKALTPNVKTIGALYSSSEDNSKTQVEEFKAYAEKAGLTVETFAVPSTNEIASTVTVMTSKVDAIWVPIDNTIASGFPTVVSSNQSSKKPIYPSATAMVEVGGLASVVIDQHDLGVATGKMIVQVLKGAKPADTPVNVFSTGKSVINKKIAQELGITIPESVLKEAGQVI | soluble
19 | SNAMANTSSDWAGAPQNASADGEFVRDTNYIDDRIVADVPAGSEPIAQEDGTFHWPVEAGRYRLVAARACPWAHRTVITRRLLGLENVISLGLTGPTHDVRSWTFDLDPNHLDPVLQIPRLQDAYFNRFPDYPRGITVPALVEESSKKVVTNDYPSITIDFNLEWKQFHREGAPNLYPAELREEMAPVMKRIFTEVNNGVYRTGFAGSQEAHNEAYKRLWVALDWLEDRLSTRRYLMGDHITEADIRLYPTLVRFDAVYHGHFKCGRNKITEMPNLWGYLRDLFQTPGFGDTTDFTEIKQHYYITHAEINPTRIVPVGPDLSGFATPHGREKLGGSPFAEGVTLPGPIPAGEEVKNPEPFQK | soluble
20 | SNAMATFMTEDFLLKNDIARTLYHKYAAPMPIYDFHCHLSPQEIADDRRFDNLGQIWLEGDHYKWRALRSAGVDESLITGKETSDYEKYMAWANTVPKTLGNPLYHWTHLELRRPFGITGTLFGPDTAESIWTQCNEKLATPAFSARGIMQQMNVRMVGTTDDPIDSLEYHRQIAADDSIDIEVAPSWRPDKVFKIELDGFVDYLRKLEAAADVSITRFDDLRQALTRRLDHFAACGCRASDHGIETLRFAPVPDDAQLDAILGKRLAGETLSELEIAQFTTAVLVWLGRQYAARGWVMQLHIGAIRNNNTRMFRLLGPDTGFDSIGDNNISWALSRLLDSMDVTNELPKTILYCLNPRDNEVLATMIGNFQGPGIAGKVQFGSGWWFNDQKDGMLRQLEQLSQMGLLSQFVGMLTDSRSFLSYTRHEYFRRILCNLLGQWAQDGEIPDDEAMLSRMVQDICFNNAQRYFTIK | soluble
21 | SNAMKEKVVIITGGSSGMGKGMATRFAKEGARVVITGRTKEKLEEAKLEIEQFPGQILTVQMDVRNTDDIQKMIEQIDEKFGRIDILINNAAGNFICPAEDLSVNGWNSVINIVLNGTFYCSQAIGKYWIEKGIKGNIINMVATYAWDAGPGVIHSAAAKAGVLAMTKTLAVEWGRKYGIRVNAIAPGPIERTGGADKLWISEEMAKRTIQSVPLGRLGTPEEIAGLAYYLCSDEAAYINGTCMTMDGGQHLHQYPF | soluble
22 | SNAMKFSEFRYERPDIAQLQASFQEALDSFRRAGSAALQHEAMKRINELRRRYSTMANLCHIRHTIDTNDEFYKKEQDFFDETEPVVKGLVNDYYRALVSSPFRAELEQVWGKQLFALAETQLKTYAPVIVEDLQKENKLASEYTKLIASAKIMFEGEERTLAQLQPFVESPDRAMRQRASEARFSFFKDYEKELDELYDELVHVRTAIARKLGFQNFVELGYARLGRTDYNADMVAGYRRQVKTHIVPLAAKLRERQRQRIQVEKLYYYDEPFMFPTGNPTPKGDADWIVQNGRQMYEELSPETGEFFRYMVEHELMDLVAKKGKAGGGYCTYIDDYKAPFIFSNFTGTSGDIDVLTHEAGHAFQVYESRHYDIPEYNWPTLEACEIHSMSMEFFTWPWMELFFGEDADKYRFAHLSDALLFLPYGVAVDEFQHAVYENPDMTPAERKSVWRNIEKAYLPTRDYADHDYLERGGFWQRQGHIYTDPFYYIDYTLAQVCAFQFWKRAQEDRASAWRDYVALCRLGGSRPFTELVKSANLQSPFADGAVASVVGHIERWLDSVDDKAL | soluble
